Measured values as given in paper PMC3413138.
Where two headings read alike, the source gives them in different places.

B1: COX-2 3'-UTR U-4 (ssRNA)
RNA: UGUAACAGAAGUCAGUACUCCUGUUGCGGAGAAAGGAGUCAUACUUGUGAAGACUUUUAUGUCACUACUCUAAAGAUUUUGCUGUUGCUGUUAAGUUUGG
B2: COX-2 3'-UTR U-2 (ssRNA)
RNA: AAGUCUAAUGAUCAUAUUUAUUUAUUUAUAUGAACCAUGUCUAUUAAUUUAAUUAUUUAAUAAUAUUUAUAUUAAACUCCUUAUGUUACUUAACAUCUUCUGUAACAGAAGUCAGUACUCCUGUUGCGGAGAAAGGAGUCAUACUUGUGAAGACUUUUAUGUCACUACUCUAAAGAUUUUGCUGUUGC
B3: negative control NC RNA (ssRNA)
RNA: CAUAGCUCAUUAUACCCUCCUGGGCUCAAGCAAUCCCCCUAACUCUGCCUCCCCAGUAGCUAGGACCACAGGCAUACACC
B4: COX-2 3'-UTR U-3 (ssRNA)
RNA: GCGGAGAAAGGAGUCAUACUUGUGAAGACUUUUAUGUCACUACUCUAAAGAUUUUGCUGUUGCUGUUAAGUUUGGAAAACAGUUUUUAUUCUGUUUUAUAAACCAGAGAGAAAUGAGUUUUGACGUCUUUUUACUUGAAUUUCAACUUAUAUUAUAAGGACGAAAGUAAAGAUGUUUGAAUACUUAAACACUAUCACAAGAUGCCAA
B5: COX-2 3'-UTR U-1 (ssRNA)
RNA: AAGUCUAAUGAUCAUAUUUAUUUAUUUAUAUGAACCAUGUCUAUUAAUUUAAUUAUUUAAUAAUAUUUAUAUUAAACUCCUUAUGUUACUUAACAUCUUCUGUAACAGAAGUCAGUACUCCUGUUGCGGAGAAAGGAGUCAUACUUGUGA

What was measured:
Assay in all cases: SPR
HuR = HuR (UniProt Q15717 1-326)
Sequence of HuR (Q15717 whole entry): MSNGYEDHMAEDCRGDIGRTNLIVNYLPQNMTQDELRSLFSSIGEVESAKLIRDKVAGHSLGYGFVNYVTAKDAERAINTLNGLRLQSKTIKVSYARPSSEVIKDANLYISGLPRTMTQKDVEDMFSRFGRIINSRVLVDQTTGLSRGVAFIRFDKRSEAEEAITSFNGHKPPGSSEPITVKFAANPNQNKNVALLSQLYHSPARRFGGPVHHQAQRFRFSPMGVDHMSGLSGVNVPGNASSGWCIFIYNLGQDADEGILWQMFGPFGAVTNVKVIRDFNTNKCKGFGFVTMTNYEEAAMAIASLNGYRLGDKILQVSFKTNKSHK

beta-catenin FL [1] = target: T1, beta-catenin FL (UniProt P35222 1-781)
T1 sequence (P35222 whole entry): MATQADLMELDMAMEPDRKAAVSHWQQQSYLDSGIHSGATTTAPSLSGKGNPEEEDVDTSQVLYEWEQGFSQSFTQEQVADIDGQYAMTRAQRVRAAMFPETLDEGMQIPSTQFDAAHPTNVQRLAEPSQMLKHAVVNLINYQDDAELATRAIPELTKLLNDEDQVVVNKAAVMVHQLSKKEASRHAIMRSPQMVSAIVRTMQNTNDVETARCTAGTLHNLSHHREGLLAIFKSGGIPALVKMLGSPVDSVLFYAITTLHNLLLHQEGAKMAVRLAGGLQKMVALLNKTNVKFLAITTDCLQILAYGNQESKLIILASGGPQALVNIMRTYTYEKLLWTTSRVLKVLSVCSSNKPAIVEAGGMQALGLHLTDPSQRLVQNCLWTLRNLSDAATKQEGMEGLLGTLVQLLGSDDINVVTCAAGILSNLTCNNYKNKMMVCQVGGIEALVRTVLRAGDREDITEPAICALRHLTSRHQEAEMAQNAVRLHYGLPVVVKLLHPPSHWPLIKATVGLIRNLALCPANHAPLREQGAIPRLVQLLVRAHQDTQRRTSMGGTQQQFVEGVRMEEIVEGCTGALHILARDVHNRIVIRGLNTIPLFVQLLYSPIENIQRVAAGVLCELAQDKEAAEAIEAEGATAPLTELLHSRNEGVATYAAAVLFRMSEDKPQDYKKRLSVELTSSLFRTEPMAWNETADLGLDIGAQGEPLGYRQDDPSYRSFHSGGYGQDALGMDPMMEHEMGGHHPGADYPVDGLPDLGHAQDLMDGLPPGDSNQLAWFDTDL

beta-catenin FL [2] = target: T1, beta-catenin FL; remark: listed apart in the source
beta-catenin FL [3] = target: T1, beta-catenin FL; remark: listed apart in the source

Row | Binder | Kd (HuR) | Kd (beta-catenin FL [1]) | Kd (beta-catenin FL [2]) | binding result (beta-catenin FL [3])
1 | B1 | 3510 nM | 131 nM |  | 
2 | B2 | 81.3 nM |  | 158 nM | 
3 | B3 |  |  |  | no binding
4 | B4 |  |  | 2600 nM | 
5 | B5 | 33.4 nM |  |  | 
